Results published in paper PMC12316982 (Nature Communications, 2025).

Tests used:
Assay in all cases: ELISA
Conditions in all cases: both partners purified
[1] = molecular target: stabilized neuraminidase protein (sNAp) of A/New Caledonia/20/1999 (NC99, H1N1) (Influenza A virus A/New …, UniProt Q7TG96, stabilised)
[2] = molecular target: stabilized neuraminidase protein (sNAp) of A/Michigan/45/2015 (MI15, H1N1) (Influenza A virus A/Michigan/45/2015 …, UniProt A0A0X9QTS2, stabilised)
[3] = molecular target: T1, NA of the influenza B-Victoria lineage virus B/Colorado/06/2017 (B/Vic CO17) (Influenza B virus B/Colorado/06/2017 …, UniProt A0A1X9RX69, strain)
T1 construct: not shown: His6, N-terminal, kept

Measured: binding result

B1: NCS.1 (human IgG1) (antibody, V domains shown)
VH: QVQLPESGPRLVKPSETLSLTCSVSGESISSGGYYWTWIRQHPGKGLEWIGNIFDTGSTHYSPSLKTRLTISIDTSKNQFYLRLNSATAADTAVYYCARVGYSLETDRPYYFGLDVWGQGTTVTVSS
VL: DIVMTQSPLSLPVTPGEPASISCRSSQSLLHSNGYTYLDWYLQKPGQSPQLLIYLASNRASGVPDRFSGSGSGTYFTLKISRVEAEDVGVYYCMQAVQTPWTFGQGTKVEIK
binds: all assays above

B2: NCS.1.1 (human IgG1) (antibody, V domains shown)
VH: QVQLQESGPRLVKPSETLSLTCSVSGESISSGGYYWTWIRQHPGKGLEWIGNIFDTGSTDYSPSLKTRLTISIDTSKNQFYLRLNSATAADTAVYYCARVGFSLETDRPYYLGLDVWGQGTTVTVSS
VL: DIVMTQSPLSLPVTPGEPASISCRSSQSLLHSNGYTYLDWYLQKPGQSPQLLISFTSNRASGVPDRFSGSGSGTYFTLKISRVEAEDVGVYYCMQAVQTPWTFGQGTKVEIK
binds: all assays above

B3: NCS.1.3 (human IgG1) (antibody, V domains shown)
VH: QVQLQESGPRLVKPSETLSLTCSVSGESISSGGYYWTWIRQHPGKGLEWIGNIFDTGSTDYSPSLKTRLTISIDTSKNQFYLRLTSATAADTAVYYCARVGFSLETDRPYYLGLDVWGQGTTVTVSS
VL: DIVMTQSPLTLPVTPGEPASISCRSSQSLLHSNGYTYLDWYLQKPGQSPQLLIYFASNRASGVPDRFSGSGSGTYFTLKISRVEAEDVGVYYCMQAVQSPWTFGQGTKVEIK
binds: all assays above
